B1: SPRY domain-containing SOCS box protein 2 (Mus musculus), O88838 (parent)
chain: MGQTALARGSSSTPTSQALYSDFSPPEGLEELLSAPPPDLVAQRHHGWNPKDCSENIDVKEGGLCFERRPVAQSTDGVRGKRGYSRGLHAWEISWPLEQRGTHAVVGVATALAPLQADHYAALLGSNSESWGWDIGRGKLYHQSKGLEAPQYPAGPQGEQLVVPERLLVVLDMEEGTLGYSIGGTYLGPAFRGLKGRTLYPSVSAVWGQCQVRIRYMGERRVEEPQSLLHLSRLCVRHALGDTRLGQISTLPLPPAMKRYLLYK
partner: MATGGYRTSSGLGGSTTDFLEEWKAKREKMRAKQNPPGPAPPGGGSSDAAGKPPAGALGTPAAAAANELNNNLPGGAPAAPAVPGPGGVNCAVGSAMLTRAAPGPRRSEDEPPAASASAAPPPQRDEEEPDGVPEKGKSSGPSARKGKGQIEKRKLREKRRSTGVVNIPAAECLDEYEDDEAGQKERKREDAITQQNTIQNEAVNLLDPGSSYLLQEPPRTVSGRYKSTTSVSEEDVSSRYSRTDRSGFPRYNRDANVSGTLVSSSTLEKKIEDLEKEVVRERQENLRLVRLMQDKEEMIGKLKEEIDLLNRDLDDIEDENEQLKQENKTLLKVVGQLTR

Variants of: B1
Settings: with pawr_human PAWR

Row | effect of a mutation on the interaction | Variant
1 | disrupting interaction strength | G188A;P189A
2 | disrupting interaction | Y120A
3 | disrupting interaction strength | Y141A;H142A;Q143A

Continued, variant first:

Row | Variant | effect of a mutation on the interaction
4 | Q151A;Y152A | disrupting interaction strength
5 | V206A | disrupting interaction
6 | L123A;L124A;G125A | disrupting interaction strength
